Results from the supplement of paper PMC7877785.
± gives the uncertainty stated by the source.

Assay: self-splicing fitness, log relative to wild type (ln ratio); higher = more splicing; Tetrahymena group I intron in knt gene, E. coli kanamycin selection, DiMSum; sequences stand for … in CUCUCU…GGAGGGAAAAGUUAUCAGGCAUGCACCUGGUAGCUAGUCUUUAAACCAAUAGAUUGCAUCGGUUUAAAAGGCAAGACCGUCAAAUUGCGGGAAAGGGGUCAACAGCCGUUCAGUACCAAGUCUCAGGGGAAACUUUGAGAUGGCCUUGCAAAGGGUAUGGUAAUAAGCUGACGGACAUGGUCCUAACCACGCAGCCAAGUCCUAAGUCAACAGAUCUUCUGUUGAUAUGGAUGCAGUUCACAGACUAAAUGUCGGUCGGGGAAGAUGUAUUCUUCUCAUAAGAUAUAGUCGGACCUCUCCUUAAUGGGAGCUAGCGGAUGAAGUGAUGCAACACUGGAGCCGCUGGGAACUAAUUUGUAUGCGAAAGUAUAUUGAUUAGUUUUGGAGUACUCGUGGUCG
Procedure, shortened: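 Library with all eight P1ex-region intron nucleotides randomised, intron inside the knt kanamycin-resistance gene on pET-22b(+), in E. coli BL21(DE3). Cells grew overnight at 37°C or 30°C on LB agar with or without 25 μg/mL kanamycin (plus 100 μg/mL carbenicillin, 50 μM IPTG, 0.2% rhamnose), in six replicate transformations. Pooled colonies were amplicon-sequenced on Illumina HiSeq 2500. DiMSum fitness is the error-weighted combination of wild-type-normalised replicate fold changes, kanamycin versus none.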

Sequence	self-splicing fitness (ln) (30 °C)	self-splicing fitness (ln) (37 °C)
CGGUAGCAAUAUUACGUCCU	-0.294 ± 0.063	0.121 ± 0.08
UUUAAGCAAUAUUACGUUUA	-2.69 ± 0.17	-2.1 ± 0.11
ACAGAGCAAUAUUACGCGGC	-3.41 ± 0.3	-2.18 ± 0.37
AGGAAGCAAUAUUACGGUGA	-2.15 ± 0.09	-1.23 ± 0.088
CCUGAGCAAUAUUACGCUAU	-3.66 ± 0.2	-3.09 ± 0.19
GUGUAGCAAUAUUACGCCAG	–	-1.12 ± 0.5
GACGAGCAAUAUUACGUACA	-3.04 ± 0.27	-2.26 ± 0.2
CCCCAGCAAUAUUACGACGA	-4.12 ± 0.39	-2.68 ± 0.27
ACGUAGCAAUAUUACGAACG	-1 ± 0.082	-0.927 ± 0.12
ACUCAGCAAUAUUACGCUUC	-2.3 ± 0.094	-1.48 ± 0.12
UAUAAGCAAUAUUACGACAC	-1.87 ± 0.21	-1.05 ± 0.26
GUCAAGCAAUAUUACGCUGA	-5.3 ± 0.45	-3.74 ± 0.42
CGGCAGCAAUAUUACGCAAC	–	-2.1 ± 0.26
GAGCAGCAAUAUUACGAGUC	-1.91 ± 0.12	-1.92 ± 0.17
CGCUAGCAAUAUUACGCCCA	-0.642 ± 0.11	-0.0477 ± 0.14
AUCUAGCAAUAUUACGACUC	-0.0532 ± 0.28	–
AAUUAGCAAUAUUACGUGCU	-2.18 ± 0.12	-1.33 ± 0.11
UUAUAGCAAUAUUACGUUAG	-1.1 ± 0.12	-0.717 ± 0.14

Sequence	self-splicing fitness (ln) (30 °C)	self-splicing fitness (ln) (37 °C)
AGUUAGCAAUAUUACGGGCA	-0.103 ± 0.13	-0.162 ± 0.15
GCUCAGCAAUAUUACGAGCU	-1.77 ± 0.2	-2.27 ± 0.35
GUCUAGCAAUAUUACGGUCU	-2.19 ± 0.17	-0.272 ± 0.16
GAAUAGCAAUAUUACGGGAC	-3.37 ± 0.31	-2.53 ± 0.3
CUAGAGCAAUAUUACGAUUC	-2.96 ± 0.29	-2.75 ± 0.48
CGCCAGCAAUAUUACGGGAC	–	-2.48 ± 0.24
ACGAAGCAAUAUUACGCUUG	-1.4 ± 0.086	-0.259 ± 0.098
CUAGAGCAAUAUUACGAAUA	-3.49 ± 0.48	-1.86 ± 0.34
CCCGAGCAAUAUUACGACCG	-4 ± 0.29	-2.24 ± 0.29
ACACAGCAAUAUUACGUCUU	-1.17 ± 0.046	0.012 ± 0.058
GUGCAGCAAUAUUACGAUUA	-1.38 ± 0.13	-0.611 ± 0.12
UUCUAGCAAUAUUACGAGGG	–	-1.5 ± 0.17
UGAAAGCAAUAUUACGUAGG	-0.728 ± 0.095	-0.459 ± 0.14
CUGGAGCAAUAUUACGAGUA	-2.08 ± 0.26	-3.21 ± 0.35
GGACAGCAAUAUUACGUGUU	-3.42 ± 0.13	-2.44 ± 0.2
GGGCAGCAAUAUUACGCUUU	-0.861 ± 0.057	0.0207 ± 0.075
AAGGAGCAAUAUUACGAGUG	–	-2.2 ± 0.4
